In the assay the target is T1, endogenous eIF-4E of mouse fibroblasts (mouse, UniProt P63073 2-217).
T1 construct: mature
Description: eIF-4E captured on a methyl-G column from mouse fibroblast lysates, Western blot for both proteins.

This is an account of results in US20030022263A1 (ST JUDE CHILDREN S RESEARCH HOSPITAL, published 2003).

T1 sequence (P63073 2-217): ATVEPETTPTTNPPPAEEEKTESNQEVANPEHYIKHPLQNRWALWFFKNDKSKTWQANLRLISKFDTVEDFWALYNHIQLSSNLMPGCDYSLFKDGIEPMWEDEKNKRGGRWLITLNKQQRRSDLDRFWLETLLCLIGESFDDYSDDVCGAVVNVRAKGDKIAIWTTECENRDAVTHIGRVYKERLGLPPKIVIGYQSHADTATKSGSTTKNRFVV
Description: Fibroblasts from normal or AT mice were treated with (+) or without (−) insulin and total cellular and complexed eIF-4E and 4E-BP1 were examined by Western blot. […] The amount of 4E-BP1 bound to eIF-4E was examined by immunoprecipitating eIF-4E with a methyl-G column and then blotting for both proteins.

B1: endogenous 4E-BP1 of mouse fibroblasts (other, UniProt Q60876 2-117, looked up)
chain: SAGSSCSQTPSRAIPTRRVALGDGVQLPPGDYSTTPGGTLFSTTPGGTRIIYDRKFLMECRNSPVAKTPPKDLPAIPGVTSPTSDEPPMQASQSQLPSSPEDKRAGGEESQFEMDI
notes: mature
Consider B1, for which the binding result is reported as “binds”.
